In PMC13061415, “A structural code for assembly specificity in GID/CTLH-type E3 ligases” (eLife, 2026):

Experiments:
Conditions in all cases: both partners purified
[1] = target: muskelin CTLH-CRA domain co-expressed with Twa1_52 (rat); experiment: SEC-MALS; CTLH-CRA domain complexes co-expressed in E. coli and purified as complexes; Superdex 75 10/300 GL; 20 mM tricine pH 8.0, 500 mM NaCl, 1 mM TCEP
[2] = target: T1, Wdr26 CTLH-CRA domain (136-278) (mouse, UniProt Q8C6G8 136-278); experiment: as above
T1 construct: Wdr26, mouse, residues 136-278; Could not be purified on its own; source: E. coli BL21 CodonPlus (DE3) RIL, co-expressed with tagless Twa1_52, complex purified (Ni-IDA, 3C cleavage, SEC); not shown: His6, N-terminal, cleaved
T1 sequence (looked up): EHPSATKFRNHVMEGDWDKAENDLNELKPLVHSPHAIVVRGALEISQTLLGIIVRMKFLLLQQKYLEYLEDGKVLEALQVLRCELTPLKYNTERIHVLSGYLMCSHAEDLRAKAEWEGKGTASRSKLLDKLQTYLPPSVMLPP

[3] = target: T2, muskelin CTLH-CRA domain (205–735 Δ248–625) (rat, UniProt Q99PV3 205-735, Δ248–625); experiment: ITC; muskelin CTLH-CRA (160 μM, syringe) titrated into RanBP10 or Twa1 CTLH-CRA variants (16 μM, cell); 25°C; 20 mM tricine pH 8.0, 500 mM NaCl, 1 mM TCEP; one-site model
T2 construct: muskelin, rat, fusion of the CTLH motif and the C-terminus (CRA^N-like): residues 205-735 with 248-625 deleted; also called muskelin wt; CTLH-Ct construct; source: E. coli BL21 CodonPlus (DE3) RIL, purified as described previously (van gen Hassend et al., 2023)
T2 sequence (Q99PV3 other isoform, or with tags, fused parts or gaps Δ248–625 | Δ248–625 | mutant): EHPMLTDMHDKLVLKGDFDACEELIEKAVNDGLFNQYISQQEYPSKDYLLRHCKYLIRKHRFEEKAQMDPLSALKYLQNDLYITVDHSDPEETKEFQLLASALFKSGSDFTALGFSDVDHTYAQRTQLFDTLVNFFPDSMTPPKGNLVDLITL

muskelin (1–735) = target: T3, muskelin (1–735) (rat, UniProt Q99PV3 1-735); experiment: ITC; Twa1_52 CTLH-CRA (192 μM, syringe) titrated into muskelin (1–735) or Wdr26 (102–641) (19 μM, cell); 25°C; 20 mM tricine pH 8.0, 500 mM NaCl, 1 mM TCEP; one-site model
T3 construct: muskelin, rat, residues 1-735; also called full-length muskelin; tetrameric muskelin; source: E. coli BL21 CodonPlus (DE3) RIL, purified as described previously (van gen Hassend et al., 2023)
T3 sequence (Q99PV3 whole entry, the tested form may be a part): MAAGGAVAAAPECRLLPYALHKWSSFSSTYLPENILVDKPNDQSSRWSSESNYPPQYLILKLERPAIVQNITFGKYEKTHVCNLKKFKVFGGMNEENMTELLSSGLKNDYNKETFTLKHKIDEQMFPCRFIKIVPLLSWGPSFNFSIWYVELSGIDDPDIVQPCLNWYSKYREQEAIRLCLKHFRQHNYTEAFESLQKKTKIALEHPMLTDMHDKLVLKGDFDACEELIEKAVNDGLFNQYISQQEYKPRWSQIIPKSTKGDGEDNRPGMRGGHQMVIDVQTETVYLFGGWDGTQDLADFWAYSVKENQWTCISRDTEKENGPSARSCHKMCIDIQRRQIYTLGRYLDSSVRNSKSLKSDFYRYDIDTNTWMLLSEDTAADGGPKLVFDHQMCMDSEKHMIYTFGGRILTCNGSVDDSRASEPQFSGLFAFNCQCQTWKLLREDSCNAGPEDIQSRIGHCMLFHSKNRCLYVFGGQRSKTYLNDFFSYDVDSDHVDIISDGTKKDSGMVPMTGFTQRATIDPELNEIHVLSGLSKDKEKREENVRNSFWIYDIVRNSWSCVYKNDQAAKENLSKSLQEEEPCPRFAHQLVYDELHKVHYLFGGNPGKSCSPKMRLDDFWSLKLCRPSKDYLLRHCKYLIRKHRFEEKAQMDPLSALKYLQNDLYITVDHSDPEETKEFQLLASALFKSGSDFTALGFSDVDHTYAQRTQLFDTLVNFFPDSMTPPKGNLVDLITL

Wdr26 (102–641) = target: T4, Wdr26 (102–641) (mouse, UniProt Q8C6G8 102-641); experiment: as above
T4 construct: Wdr26, mouse, residues 102-641; also called dimeric Wdr26; (near) full-length Wdr26; source: E. coli BL21 CodonPlus (DE3) RIL, purified as described previously (van gen Hassend et al., 2023)
T4 sequence (looked up): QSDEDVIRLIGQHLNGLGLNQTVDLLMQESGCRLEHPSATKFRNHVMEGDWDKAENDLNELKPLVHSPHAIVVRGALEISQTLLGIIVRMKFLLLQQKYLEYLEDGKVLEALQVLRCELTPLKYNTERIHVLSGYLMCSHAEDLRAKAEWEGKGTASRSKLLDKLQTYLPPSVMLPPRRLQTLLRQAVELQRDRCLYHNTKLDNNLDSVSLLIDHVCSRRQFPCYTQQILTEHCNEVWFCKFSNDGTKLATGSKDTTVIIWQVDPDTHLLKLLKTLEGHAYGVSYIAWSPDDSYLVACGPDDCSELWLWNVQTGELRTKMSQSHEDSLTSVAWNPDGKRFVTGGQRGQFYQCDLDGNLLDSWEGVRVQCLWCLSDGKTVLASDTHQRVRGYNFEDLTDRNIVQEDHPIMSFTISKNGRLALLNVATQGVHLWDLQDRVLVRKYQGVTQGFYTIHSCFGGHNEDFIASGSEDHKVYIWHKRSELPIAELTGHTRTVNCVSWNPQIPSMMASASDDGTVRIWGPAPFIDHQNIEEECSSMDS

Chain of muskelin CTLH-CRA domain co-expressed with Twa1_52 (rat) (chain, as listed by the source): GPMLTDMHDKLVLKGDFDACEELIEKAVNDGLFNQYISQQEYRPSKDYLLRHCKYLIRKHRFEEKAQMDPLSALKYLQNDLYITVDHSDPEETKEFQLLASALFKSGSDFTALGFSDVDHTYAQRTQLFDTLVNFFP

B1: Twa1_52 mutant (A125G, Q126R, Δ127T, L140K, E144K, L147F, F152Y, F160V), CTLH-CRA domain (domain or fragment, mouse, UniProt Q9D7M1 58-190, looked up)
chain: SVDLETLDERIKIREMILKGQIQEAIALINSLHPELLDTNRYLYFHLQQQHLIELIRQRETEAALEFGRQLAEQGEESRECKTEMKRTFALLAYDSPEESPVGDLLHMMQRQKVWSEVNQAVLDYENRESTP
notes: Twa1, mouse, CTLH-CRA domain 58-190 with eight changes; source: E. coli BL21 CodonPlus (DE3) RIL, purified (Ni-IDA, 3C cleavage, SEC); also tagless, co-expressed with muskelin or Wdr26 CTLH-CRA domain; not shown: His6, N-terminal, cleaved
B1 was tested, and the “stoichiometry N” value [1] was 1, the “stoichiometry N” value [2] was 1 and the Kd [3] was 146 nM. It also gave a Kd (muskelin (1–735)) of 17.9 nM and a Kd (Wdr26 (102–641)) of 15.9 nM.
